In the supplement of paper PMC7125110:
± gives the standard error. This sample holds only a part of the variants without activity.

B1: glmS ribozyme (parent)
chain: AUAAAAGCGCCAGAACUACAGAAAUGUAGUUGACGAGGAGGAGGUUUAUCGAAUUUUCGGCGGAUGCCUCCAAA

Tests used:
Conditions in all cases: with glucosamine-6-phosphate
glucosamine-6-phosphate [1] = variants of: B1; assay: self-cleavage kobs at 40 uM GlcN6P; higher = faster cleavage; RNA array
In short: (§1)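 Ribozyme variants carrying barcodes were transcribed in situ on sequenced MiSeq chips by E. coli RNA polymerase and tracked at 37 °C with a hybridised Cy3 probe. They were exposed to 40 μM to 10 mM glucosamine-6-phosphate in HEPES/KCl/Mg(OAc)2 buffer. kobs came from exponential decay fits of normalised per-tile medians, and kcat and KM from weighted Michaelis–Menten fits.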

glucosamine-6-phosphate [2] = variants of: B1; assay: self-cleavage kobs at 160 uM GlcN6P; higher = faster cleavage; RNA array
In short: as §1

glucosamine-6-phosphate [3] = variants of: B1; assay: self-cleavage kobs at 640 uM GlcN6P; higher = faster cleavage; RNA array
In short: as §1

glucosamine-6-phosphate [4] = variants of: B1; assay: self-cleavage kobs at 2500 uM GlcN6P; higher = faster cleavage; RNA array
In short: as §1

glucosamine-6-phosphate [5] = variants of: B1; assay: self-cleavage kobs at 10000 uM GlcN6P; higher = faster cleavage; RNA array
In short: as §1

Variant | self-cleavage kobs at 40 uM GlcN6P (glucosamine-6-phosphate [1]) [s⁻¹] | self-cleavage kobs at 160 uM GlcN6P (glucosamine-6-phosphate [2]) [s⁻¹] | self-cleavage kobs at 640 uM GlcN6P (glucosamine-6-phosphate [3]) [s⁻¹] | self-cleavage kobs at 2500 uM GlcN6P (glucosamine-6-phosphate [4]) [s⁻¹] | self-cleavage kobs at 10000 uM GlcN6P (glucosamine-6-phosphate [5]) [s⁻¹]
AUAAAAGCGCCAUAACUACAGAAAUGUAGUUGACCAGGAGGAGGUUUAUCGAAUUUUCGGCGGAUGCCUCCAAA [G13U G35C] | < 1e-05 | < 1e-05 | < 1e-05 | < 1e-05 | < 1e-05
AUAAAAGCGCCAGAGCUACAGAAAUGUAGUCGACGAGGAGGAGGUUUAUCGAAUUUUCGGCGGAUGCCUCCAAA [A15G U31C] | 0.000207 ± 3.4e-05 | 0.00035 ± 8.7e-05 | 0.00208 ± 0.00026 | 0.00542 ± 0.0013 | 0.0123 ± 0.0028
AUAAAAGCGCCACAACUACAGAAAUGUAGUUGACGAGGAGGAGGUUUGUCGAAUUUUCGGCGGAUUCCUCGAAA [G13C A48G G66U C71G] | < 1e-05 |  |  |  | < 1e-05
AUAAAAGCGGCAGAACUACAGAAAUGUAGUUGACGAUGAGGCGGUUUAUCGAAUUUUCGGCGGAUGCCUCCAAA [C10G G37U A42C] | < 1e-05 |  |  |  | 
AUAAAAGCGCCAGAACUACAGAAAUGUAGUUGACGAGGAGGAGGUUUAUCGAAUUUUCGGCGGGGGCCUCAAAA [A64G U65G C71A] | 5.45e-05 ± 2.2e-05 |  |  |  | 0.00131 ± 0.00024
AUAAAAGUGCCAGAUCUACAGAAAUGUAGGUGACCAGGAGUAGGUUUAUCGAAUUUUCGGCGGAUGCCUCCAAA [C8U A15U U30G G35C G41U] | < 1e-05 |  | < 1e-05 | < 1e-05 | 
AUAAAGGCGCCAGAACUACAGAAAUGUAGUUGUCGAGGAGGAGGUUUAUCGAAUUUUGGGCGGAUGUCUCAAAA [A6G A33U C58G C67U C71A] | 5.47e-05 ± 2.5e-05 | 9.68e-05 ± 2.9e-05 | 0.000593 ± 0.00019 | 0.000109 ± 4.9e-05 | 
AUAAAAGCGCCAGAACUACAGAAAUGUAGUUCACGAGGAGAAGGUUUAUCGCAUUUUCGGCGGAUGCCUCCAAA [G32C G41A A52C] | < 1e-05 | < 1e-05 |  | < 1e-05 | 
AUAAAAGCGCCAGAACUACAGAAAUGUAGUUGCCGAGAAGGAGGUUUAUCGAAUUUUCGGCGGAUGCCUCCAAA [A33C G38A] | < 1e-05 | < 1e-05 | < 1e-05 | < 1e-05 | < 1e-05
AUAAAAGCGCCAGAACUACAGAAAUGUAGUUGACAAGGAGGAGGUUUAUCGAAUUAUCGGCGAAUGCCUCCAAA [G35A U56A G63A] | < 1e-05 |  |  |  | < 1e-05
AUAAAAGCGCCAAAACUACAGAAAUGUAGUUGACGAGGAGGAGGUUUAUGGAAUUUUCGGCGGAUUCCACCAAA [G13A C50G G66U U69A] | 8.64e-05 ± 2.3e-05 |  | 0.000563 ± 0.00026 |  | 0.000117 ± 3e-05
AUAAAAGCGCCAGAACUACAGAAAUGUAGUUGACGUGGAGGAGGUUUAUCGAAUUUUCGGCGGAUGCCUGCAAA [A36U C70G] | 3.74e-05 ± 8.5e-06 | 2.91e-05 ± 1.4e-05 | 0.000403 ± 6.8e-05 |  | 
